System: Escherichia coli TOP10
Experiment: shrunken log2 fold change of peptide-encoding DNA abundance (4.5 h post-induction vs induction); higher = less antimicrobial activity (less host growth inhibition)
Conditions: time post-induction: 4.5 h; library: site-saturation at positions 5, 18, 19, 20
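Also: peptides expressed intracellularly from a pBAD plasmid library in pooled LB shake-flask culture, induced with 0.3% L-arabinose, DNA abundance read by NGS, three biological replicates, DESeq2 with apeglm shrinkage.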

Sequence	shrunken log2 fold change
RRIRRRPPRLPRPRPRPAGKPRP	0.211
RRIRQRPPRLPRPRPRPKPNPRP	0.301
RRIRHRPPRLPRPRPRPKYYPRP	0.046
RRIRVRPPRLPRPRPRPRYVPRP	-0.218
RRIRSRPPRLPRPRPRPCQAPRP	0.116
RRIRYRPPRLPRPRPRPNVAPRP	-0.0308
RRIRFRPPRLPRPRPRPGLVPRP	-0.0941
RRIRGRPPRLPRPRPRPSGEPRP	0.598
RRIRMRPPRLPRPRPRPQRFPRP	-0.0093
RRIRRRPPRLPRPRPRPHGCPRP	0.000335
RRIRQRPPRLPRPRPRPSLRPRP	0.239
RRIRWRPPRLPRPRPRPTLKPRP	0.0453
RRIRNRPPRLPRPRPRPAVGPRP	0.543
RRIRLRPPRLPRPRPRPAEFPRP	-0.011
RRIRLRPPRLPRPRPRPKGPPRP	0.28
RRIRPRPPRLPRPRPRPKRDPRP	0.0476
RRIRYRPPRLPRPRPRPYQAPRP	-0.0933
RRIRHRPPRLPRPRPRPRCYPRP	-0.154
RRIRARPPRLPRPRPRPDWFPRP	0.408
RRIRFRPPRLPRPRPRPFIRPRP	-0.588

Sequence	shrunken log2 fold change
RRIRRRPPRLPRPRPRPPNNPRP	0.177
RRIRARPPRLPRPRPRPPMNPRP	0.134
RRIRCRPPRLPRPRPRPTSDPRP	0.129
RRIRFRPPRLPRPRPRPWKWPRP	-0.0196
RRIRLRPPRLPRPRPRPIVCPRP	0.0348
RRIRTRPPRLPRPRPRPHDFPRP	0.0369
RRIRVRPPRLPRPRPRPSCCPRP	-0.133
RRIRERPPRLPRPRPRPQIAPRP	0.0377
RRIRARPPRLPRPRPRPRDYPRP	0.204
RRIRERPPRLPRPRPRPTLIPRP	0.0112
RRIRIRPPRLPRPRPRPDLGPRP	-0.0274
RRIRQRPPRLPRPRPRPEYDPRP	-0.168
RRIRQRPPRLPRPRPRPNWWPRP	0.00333
RRIRDRPPRLPRPRPRPFNHPRP	-0.368
RRIRWRPPRLPRPRPRPDMSPRP	-0.121
RRIRDRPPRLPRPRPRPIWYPRP	-0.0481
RRIRIRPPRLPRPRPRPCFSPRP	-0.198
RRIRMRPPRLPRPRPRPDIAPRP	0.0562
RRIRIRPPRLPRPRPRPNQQPRP	0.0352
RRIRIRPPRLPRPRPRPTPVPRP	0.234

Sequence	shrunken log2 fold change
RRIRERPPRLPRPRPRPRIGPRP	-0.0649
RRIRERPPRLPRPRPRPVNNPRP	-0.871
RRIRTRPPRLPRPRPRPSGDPRP	-0.221
RRIRIRPPRLPRPRPRPWWQPRP	0.0732
RRIRYRPPRLPRPRPRPMIKPRP	0.0227
RRIRTRPPRLPRPRPRPKGMPRP	0.138
RRIRDRPPRLPRPRPRPTGCPRP	0.247
RRIRNRPPRLPRPRPRPTQMPRP	0.0452
RRIRMRPPRLPRPRPRPDPVPRP	-0.0377
RRIRRRPPRLPRPRPRPNVNPRP	-0.0627
RRIRNRPPRLPRPRPRPRTIPRP	-0.221
RRIRYRPPRLPRPRPRPVPGPRP	-0.151
RRIRPRPPRLPRPRPRPVPLPRP	0.0768
RRIRDRPPRLPRPRPRPACCPRP	0.512
RRIRTRPPRLPRPRPRPDDGPRP	0.02
RRIRRRPPRLPRPRPRPNQPPRP	-0.0317
RRIRLRPPRLPRPRPRPLSLPRP	-0.145
RRIRSRPPRLPRPRPRPGDCPRP	0.0299
RRIRCRPPRLPRPRPRPCHVPRP	-0.00144
RRIRFRPPRLPRPRPRPMTAPRP	-0.00148

Reference: the supplement of paper PMC9112550, “Optimization of the antimicrobial peptide Bac7 by deep mutational scanning” (BMC Biology, 2022)
